Assay results reported in patent US20050084868A1 (published 2005).

Molecular target: T1, carcinoembryonic antigen (UniProt P06731 35-685)
T1 construct: Bought reagent (Biodesign); also called CEA
T1 sequence: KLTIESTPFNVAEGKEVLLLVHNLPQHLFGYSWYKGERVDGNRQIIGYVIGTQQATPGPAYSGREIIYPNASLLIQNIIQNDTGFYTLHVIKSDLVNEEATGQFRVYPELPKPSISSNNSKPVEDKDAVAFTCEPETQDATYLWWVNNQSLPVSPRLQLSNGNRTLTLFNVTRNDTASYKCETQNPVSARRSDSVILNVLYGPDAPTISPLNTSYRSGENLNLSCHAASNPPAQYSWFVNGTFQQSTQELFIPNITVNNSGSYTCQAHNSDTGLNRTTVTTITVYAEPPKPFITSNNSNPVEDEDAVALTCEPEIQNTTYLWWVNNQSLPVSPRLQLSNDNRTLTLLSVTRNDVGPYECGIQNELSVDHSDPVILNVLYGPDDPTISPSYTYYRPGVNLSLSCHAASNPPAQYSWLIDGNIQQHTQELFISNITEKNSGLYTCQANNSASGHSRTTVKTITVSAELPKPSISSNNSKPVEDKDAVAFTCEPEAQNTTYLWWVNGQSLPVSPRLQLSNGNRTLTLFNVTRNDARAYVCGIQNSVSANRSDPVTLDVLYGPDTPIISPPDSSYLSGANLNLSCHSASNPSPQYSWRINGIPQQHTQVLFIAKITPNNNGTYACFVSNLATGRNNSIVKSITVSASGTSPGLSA
Assay: CEA-coated plate assay on thermolysin-treated lysate, BLA/nitrocefin read-out

Binder	binding result
NA06.4 (scFv, Variant of the CAB1 scFv-BLA fusion built on NA05.6; Tested as crude lysate after thermolysin treatment; Positions are numbered along the whole CAB1 fusion (pME27)) QVKLQQSGAELVKSGGSVKLSCTASGFNIKDSYMHWVRQGPEQGLEWIGWIDPENGDTEYAPKFQGKATFTTDTSSNTAYLQLSSLTSEDTAVYYCNEGTPTGPYYFDYWGQGTTVTVSSGGGGSGGGGSGGGGSENVLTQSPAIVSASPGEKVTITCSASSSVSYMHWFQQKPGTSPKLVIYSTSNLASGVPARFSGSGSGTSYSLTISRMEAEDAATYYCQQRSSYPLTFGAGTKLELKRAATLVSEKQLAEVVANTITPLMKAQSVPGMAVAVIYQGKPHYYTFGKADIAANKPVTPQTLFELGSISKTFTGVLGGDAIARGEISLDDAVTRYWPQLTGKQWQGIRMLDLATYTAGGLPLQVPDEVTDNASLLRFYQNWQPQWKPGTTRLYANASIGLFGALAVKPSGMPYEQAMTTRVLKPLKLDHTWINVPKAEEAHYAWGYRDGKAVRVSPGMLDAQAYGVKTNVQDMANWVMANMAPENVADASLKQGIALAQSRYWRIGSMYQGLGWEMLNWPVEANTVVETSFGNVALAPLPVAEVNPPAPPVKASWVHKTGSTGGFGSYVAFIPEKQIGIVMLANTSYPNPARVEAAYHILEALQ	binds
NA06.2 (scFv, Variant of the CAB1 scFv-BLA fusion built on NA05.6; Tested as crude lysate after thermolysin treatment; Positions are numbered along the whole CAB1 fusion (pME27)) QVKLQQSGAELVKSGGSVKLSCTASGFNIKDSYMHWVRQGPGQGLEWIGWIDPENGDTEYAPKFQGKATFTTDTSSNTAYLQLSSLTSEDTAVYYCNEGTPTGPYYFDYWGQGTTVTVSSGGGGSGGGGSGGGGSENVLTQSPAIMSASPGEKVTITCSASSSVSYMHWFQQKPGTSPKLVIYSTSNLASGVPDRFSGSGSGTSYSLTISRMEAEDAATYYCQQRSSYPLTFGAGTKLELKRAATLVSEKQLAEVVANTITPLMKAQSVPGMAVAVIYQGKPHYYTFGKADIAANKPVTPQTLFELGSISKTFTGVLGGDAIARGEISLDDAVTRYWPQLTGKQWQGIRMLDLATYTAGGLPLQVPDEVTDNASLLRFYQNWQPQWKPGTTRLYANASIGLFGALAVKPSGMPYEQAMTTRVLKPLKLDHTWINVPKAEEAHYAWGYRDGKAVRVSPGMLDAQAYGVKTNVQDMANWVMANMAPENVADASLKQGIALAQSRYWRIGSMYQGLGWEMLNWPVEANTVVETSFGNVALAPLPVAEVNPPAPPVKASWVHKTGSTGGFGSYVAFIPEKQIGIVMLANTSYPNPARVEAAYHILEALQ	binds
NA06.6 (scFv, Variant of the CAB1 scFv-BLA fusion built on NA05.6; Tested as crude lysate after thermolysin treatment; Positions are numbered along the whole CAB1 fusion (pME27)) QVQLQQSGAELVKSGGSVKLSCTASGFNIKDSYMHWVRQGPEQGLEWIGWIDPENGDTEYAPKFQGKATFTTDTSSNTAYLQLSSLTSEDTAVYYCNEGTPTGPYYFDYWGQGTTVTVSSGGGGSGGGGSGGGGSENVLTQSPAIVSASPGEKVTITCSASSSVSYMHWFQQKPGTSPKLVIYSTSNLASGVPARFSGSGSGTSYSLTISRMEAEDAATYYCQQRSSYPLTFGAGTKLELKRAATLVSEKQLAEVVANTITPLMKAQSVPGMAVAVIYQGKPHYYTFGKADIAANKPVTPQTLFELGSISKTFTGVLGGDAIARGEISLDDAVTRYWPQLTGKQWQGIRMLDLATYTAGGLPLQVPDEVTDNASLLRFYQNWQPQWKPGTTRLYANASIGLFGALAVKPSGMPYEQAMTTRVLKPLKLDHTWINVPKAEEAHYAWGYRDGKAVRVSPGMLDAQAYGVKTNVQDMANWVMANMAPENVADASLKQGIALAQSRYWRIGSMYQGLGWEMLNWPVEANTVVETSFGNVALAPLPVAEVNPPAPPVKASWVHKTGSTGGFGSYVAFIPEKQIGIVMLANTSYPNPARVEAAYHILEALQ	binds
NA06.10 (scFv, Variant of the CAB1 scFv-BLA fusion built on NA05.6; Tested as crude lysate after thermolysin treatment; Positions are numbered along the whole CAB1 fusion (pME27)) QVKLQQSGAELVKSGGSVKLSCTASGFNIKDSYMHWVRQGPEQGLEWIGWIDPENGDTEYAPKFQGKATFTTDTSSNTAYLQLSSLTSEDTAVYYCNEGTPTGPYYFDYWGQGTTVTVSSGGGGSGGGGSGGGGSENVLTQSPAIVSASPGEKVTITCSASSSVSYMHWFQQKPGTSPKLVIYSTSNLASGVPDRFSGSGSGTSYSLTISRMEAEDAATYYCQQRSSYPLTFGAGTKLELKRAATLVSEKQLAEVVANTITPLMKAQSVPGMAVAVIYQGKPHYYTFGKADIAANKPVTPQTLFELGSISKTFTGVLGGDAIARGEISLDDAVTRYWPQLTGKQWQGIRMLDLATYTAGGLPLQVPDEVTDNASLLRFYQNWQPQWKPGTTRLYANASIGLFGALAVKPSGMPYEQAMTTRVLKPLKLDHTWINVPKAEEAHYAWGYRDGKAVRVSPGMLDAQAYGVKTNVQDMANWVMANMAPENVADASLKQGIALAQSRYWRIGSMYQGLGWEMLNWPVEANTVVETSFGNVALAPLPVAEVNPPAPPVKASWVHKTGSTGGFGSYVAFIPEKQIGIVMLANTSYPNPARVEAAYHILEALQ	binds
NA06.11 (scFv, Variant of the CAB1 scFv-BLA fusion built on NA05.6; Tested as crude lysate after thermolysin treatment; Positions are numbered along the whole CAB1 fusion (pME27)) QVQLQQSGAELVKSGGSVKLSCTASGFNIKDSYMHWVRQGPEQGLEWIGWIDPENGDTEYAPKFQGKATFTTDTSSNTAYLQLSSLTSEDTAVYYCNEGTPTGPYYFDYWGQGTTVTVSSGGGGSGGGGSGGGGSENVLTQSPAIMSASPGEKVTITCSASSSVSYMHWFQQKPGTSPKLVIYSTSNLASGVPDRFSGSGSGTSYSLTISRMEAEDAATYYCQQRSSYPLTFGAGTKLELKRAATLVSEKQLAEVVANTITPLMKAQSVPGMAVAVIYQGKPHYYTFGKADIAANKPVTPQTLFELGSISKTFTGVLGGDAIARGEISLDDAVTRYWPQLTGKQWQGIRMLDLATYTAGGLPLQVPDEVTDNASLLRFYQNWQPQWKPGTTRLYANASIGLFGALAVKPSGMPYEQAMTTRVLKPLKLDHTWINVPKAEEAHYAWGYRDGKAVRVSPGMLDAQAYGVKTNVQDMANWVMANMAPENVADASLKQGIALAQSRYWRIGSMYQGLGWEMLNWPVEANTVVETSFGNVALAPLPVAEVNPPAPPVKASWVHKTGSTGGFGSYVAFIPEKQIGIVMLANTSYPNPARVEAAYHILEALQ	binds
NA06.12 (scFv, Variant of the CAB1 scFv-BLA fusion built on NA05.6; Tested as crude lysate after thermolysin treatment; Positions are numbered along the whole CAB1 fusion (pME27)) QVKLQQSGAELVKSGGSVKLSCTASGFNIKDSYMHWVRQGPEQGLEWIGWIDPENGDTEYAPKFQGKATFTTDTSSNTAYLQLSSLTSEDTAVYYCNEGTPTGPYYFDYWGQGTTVTVSSGGGGSGGGGSGGGGSQNVLTQSPAIMSASPGEKVTITCSASSSVSYMHWFQQKPGTSPKLVIYSTSNLASGVPARFSGSGSGTSYSLTISRMEAEDAATYYCQQRSSYPLTFGAGTKLELKRAATLVSEKQLAEVVANTITPLMKAQSVPGMAVAVIYQGKPHYYTFGKADIAANKPVTPQTLFELGSISKTFTGVLGGDAIARGEISLDDAVTRYWPQLTGKQWQGIRMLDLATYTAGGLPLQVPDEVTDNASLLRFYQNWQPQWKPGTTRLYANASIGLFGALAVKPSGMPYEQAMTTRVLKPLKLDHTWINVPKAEEAHYAWGYRDGKAVRVSPGMLDAQAYGVKTNVQDMANWVMANMAPENVADASLKQGIALAQSRYWRIGSMYQGLGWEMLNWPVEANTVVETSFGNVALAPLPVAEVNPPAPPVKASWVHKTGSTGGFGSYVAFIPEKQIGIVMLANTSYPNPARVEAAYHILEALQ	binds

Molecular target: T1, carcinoembryonic antigen
Assay: plate assay: CEA coated on wells, culture lysate added, bound fusion read by BLA activity on nitrocefin

Binder	binding result
NA05.6 (scFv, Variant of the CAB1 scFv-BLA fusion (plasmid pME27.1), tested as crude E. coli lysate; also called pNA05.6; parent NA05.6) QVKLQQSGAELVKSGGSVKLSCTASGFNIKDSYMHWLRQGPEQGLEWIGWIDPENGDTEYAPKFQGKATFTTDTSSNTAYLQLSSLTSEDTAVYYCNEGTPTGPYYFDYWGQGTTVTVSSGGGGSGGGGSGGGGSENVLTQSPAIMSASPGEKVTITCSASSSVSYMHWFQQKPGTSPKLVIYSTSNLASGVPARFSGSGSGTSYSLTISRMEAEDAATYYCQQRSSYPLTFGAGTKLELKRAATLVSEKQLAEVVANTITPLMKAQSVPGMAVAVIYQGKPHYYTFGKADIAANKPVTPQTLFELGSISKTFTGVLGGDAIARGEISLDDAVTRYWPQLTGKQWQGIRMLDLATYTAGGLPLQVPDEVTDNASLLRFYQNWQPQWKPGTTRLYANASIGLFGALAVKPSGMPYEQAMTTRVLKPLKLDHTWINVPKAEEAHYAWGYRDGKAVRVSPGMLDAQAYGVKTNVQDMANWVMANMAPENVADASLKQGIALAQSRYWRIGSMYQGLGWEMLNWPVEANTVVETSFGNVALAPLPVAEVNPPAPPVKASWVHKTGSTGGFGSYVAFIPEKQIGIVMLANTSYPNPARVEAAYHILEALQ	binds
NA05.8 (scFv, Variant of the CAB1 scFv-BLA fusion, tested as crude lysate; Positions are numbered along the whole CAB1 fusion (pME27)) QVKLQQSGAELVKSGTSVKLSCTASGFNIKDSYMHWLRQGPEQGLEWIGWIDPENGDTEYAPKFQGKATFTTDTSSNTAYLQLSSLTSEDTAVYYCNEGTPTGPYYFDYWGQGTTVTVSSGGGGSGGGGSGGGGSENVLTQSPAIMSASPGEKVTITCSASSSVSYMHWYQQKPGTSPKLWIYSTSNLASGVPARFSGSGSGTSYSLTISRMEAEDAATYYCQQRSSYPLTFGGGTKLELKRAATLVSEKQLAEVVANTITPLMKAQSVPGMAVAVIYQGKPHYYTFGKADIAANKPVTPQTLFELGSISKTFTGVLGGDAIARGEISLDDAVTRYWPQLTGKQWQGIRMLDLATYTAGGLPLQVPDEVTDNASLLRFYQNWQPQWKPGTTRLYANASIGLFGALAVKPSGMPYEQAMTTRVLKPLKLDHTWINVPKAEEAHYAWGYRDGKAVRVSPGMLDAQAYGVKTNVQDMANWVMANMAPENVADASLKQGIALAQSRYWRIGSMYQGLGWEMLNWPVEANTVVETSFGNVALAPLPVAEVNPPAPPVKASWVHKTGSTGGFGSYVAFIPEKQIGIVMLANTSYPNPARVEAAYHILEALQ	binds
